Consider 26 sequences from the supplement of paper PMC9732359.

± gives the uncertainty stated by the source.

The nature of the series: protein stability index of a GFP-peptide fusion (yeast GPS) (PSI 1-4); higher = more stable; sorted into four equal gates, so the index is relative within each strain. In short, it runs like this: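 Tiled 17-residue yeast protein peptides were fused downstream of GFP in a plasmid that also expresses Cherry, and the pooled library was carried in yeast. Mid-log cultures in leucine-free medium were sorted into four equal gates by GFP/Cherry fluorescence ratio, and plasmids from each gate were PCR-amplified and Illumina-sequenced, with reads assigned to strains by barcodes. The protein stability index for each peptide was each gate's read frequency times its gate number, summed.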

For WSKTIKARTNLHQHVVL [RPC34], the protein stability index reads like this: (doa10∆) 2.11 ± 0.1; (pdr5∆) 1.8 ± 0.1; (san1∆) 1.71 ± 0.21; (ubr1∆) 2.34 ± 0.064.
For SKQIFTHPKDTFYITRE [ARP9] the same measures were 3.11 ± 0.065, 3.09 ± 0.056, 2.93 ± 0.038 and 3.23 ± 0.039.
In the same order, the values of YNSRPRSVRIPWYNNPV [PRP8] are 2.34 ± 0.083, 2.22 ± 0.062, 1.73 ± 0.088 and 2.49 ± 0.049.
For DNIDYAPMRLATAALEI [YJL039C/NUP192] the same measures were 2.35 ± 0.058, 2.44 ± 0.041, 2.29 ± 0.077 and 2.31 ± 0.042.
For SGTTNFMRNGLLEGLNE [UBP6], the protein stability index is, setting by setting: (doa10∆) 2.73 ± 0.21; (pdr5∆) 2.87 ± 0.14; (san1∆) 3.22 ± 0.17; (ubr1∆) 3.45 ± 0.23.
In the same order, the values of PSRQFDHYESNQLVAKL [SRB8] are 3.02 ± 0.061, 2.85 ± 0.064, 2.98 ± 0.064 and 3.17 ± 0.041.
Consider QVVLGGTSKYLINGHRA [SMC2], for which the protein stability index (doa10∆) was 2.88 ± 0.059, the protein stability index (pdr5∆) is 3.19 ± 0.066, the protein stability index (san1∆) amounted to 2.97 ± 0.062 and the protein stability index (ubr1∆) is 2.96 ± 0.065.
Consider INLRKVAEKMNGCSGAD [RPT6], for which the protein stability index runs as follows: (doa10∆) 2.45 ± 0.15; (pdr5∆) 2.25 ± 0.28; (san1∆) 2.38 ± 0.13; (ubr1∆) 3.07 ± 0.29.
On to PQEPKHIQEEEEQDVDM [RPC19], for which the protein stability index was determined as 3.41 ± 0.09 (doa10∆), 3.36 ± 0.09 (pdr5∆), 3.12 ± 0.05 (san1∆) and 3.28 ± 0.056 (ubr1∆).
In the same order, the values of DIWRVAGKFELLDRILP [SNF2] are 2.37 ± 0.086, 2.65 ± 0.08, 2.02 ± 0.14 and 2.54 ± 0.1.
In the same order, the values of AEHSQNKIDQSLQYIER [YJL041W/NSP1] are 3.17 ± 0.069, 3.16 ± 0.043, 3.21 ± 0.049 and 3.04 ± 0.048.
For IILKTRQINKLIDSLPG [SRB7] the same measures were 2.31 ± 0.071, 2.11 ± 0.047, 2.62 ± 0.067 and 2.51 ± 0.058.
For TPNLWAEQPLPVSPLDI [RPS2], the protein stability index was 1.41 ± 0.045 (doa10∆), 2.07 ± 0.06 (pdr5∆), 2.31 ± 0.056 (san1∆) and 1.58 ± 0.066 (ubr1∆).
For the sequence HANSVVALTGLLIRSKT [YML031W/NDC1], the protein stability index turned out to be 1.86 ± 0.04 (doa10∆), 2.18 ± 0.046 (pdr5∆), 1.83 ± 0.052 (san1∆) and 2.35 ± 0.033 (ubr1∆).
In the same order, the values of RSLEKVNNSVSKTGSVD [SSN2] are 2.38 ± 0.11, 3.53 ± 0.15, 3.36 ± 0.14 and 3.37 ± 0.11.
As for FGHIDLAKPVFHVGFIA [RPO21], the protein stability index turned out to be 2.37 ± 0.072 (doa10∆), 2.7 ± 0.085 (pdr5∆), 2.73 ± 0.052 (san1∆) and 2.63 ± 0.06 (ubr1∆).
In the same order, the values of CNNINKGLKENDVAVEK [BRR2] are 3.17 ± 0.12, 3.68 ± 0.18, 3.25 ± 0.09 and 3.43 ± 0.12.
In the same order, the values of LISDSNINNSSVAEKEE [SWI3] are 1.6 ± 0.14, 1.73 ± 0.13, 1.56 ± 0.12 and 1.55 ± 0.11.
As to VIPIRRGYWGTNLGQPH [RPS2], the protein stability index is, setting by setting: (doa10∆) 2.04 ± 0.074; (pdr5∆) 1.67 ± 0.11; (san1∆) 1.91 ± 0.18; (ubr1∆) 1.79 ± 0.13.
In the same order, the values of FSEVYEYNRLKVQDAIE [LIN1] are 2.71 ± 0.059, 2.17 ± 0.055, 3.04 ± 0.076 and 2.89 ± 0.086.
For SLVFNRKLAVERAGHLL [PRE5] the same measures were 2.08 ± 0.2, 1.5 ± 0.18, 1.43 ± 0.19 and 1.71 ± 0.21.
In the same order, the values of GNEVSSLYPPPPPYVKF [MED7] are 3.17 ± 0.087, 3.08 ± 0.065, 2.74 ± 0.079 and 3.13 ± 0.049.
For the sequence STLQHFQETLDSTVVYP [MED8], the protein stability index is, setting by setting: (doa10∆) 2.99 ± 0.068; (pdr5∆) 3.11 ± 0.055; (san1∆) 2.96 ± 0.055; (ubr1∆) 3.17 ± 0.041.
Consider GLYKMMEERDGAKFENI [AAR2], for which the protein stability index reads like this: (doa10∆) 1.49 ± 0.19; (pdr5∆) 1.87 ± 0.12; (san1∆) 1.68 ± 0.2; (ubr1∆) 1.74 ± 0.056.
Take GKETIARVTGGMKVKAD [RPS14B]: the protein stability index is, setting by setting: (doa10∆) 1.42 ± 0.1; (pdr5∆) 1.24 ± 0.096; (san1∆) 1.85 ± 0.11; (ubr1∆) 2.6 ± 0.11.
In the same order, the values of LQNKSFKSVLPIVLLNT [UBP6] are 1.91 ± 0.067, 1.45 ± 0.1, 1.87 ± 0.12 and 2.1 ± 0.072.
